Target: 重组MERS-CoV-S蛋白 (MERS-CoV) (UniProt K9N5Q8)
Assay: indirect ELISA, hybridoma supernatant on coated MERS-S protein

Chain of UniProt K9N5Q8 (K9N5Q8 324-644 limits assumed): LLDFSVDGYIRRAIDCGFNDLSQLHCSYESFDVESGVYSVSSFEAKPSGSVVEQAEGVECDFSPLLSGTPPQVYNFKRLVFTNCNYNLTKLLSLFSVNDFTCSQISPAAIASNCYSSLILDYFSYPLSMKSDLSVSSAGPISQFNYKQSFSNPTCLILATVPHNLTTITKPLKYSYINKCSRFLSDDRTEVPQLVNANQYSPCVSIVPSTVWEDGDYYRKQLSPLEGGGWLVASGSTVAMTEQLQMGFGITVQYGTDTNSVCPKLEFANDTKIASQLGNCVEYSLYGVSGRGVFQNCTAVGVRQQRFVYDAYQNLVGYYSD

| Binder | 效价 (titer (1:dilution)) | 敏感性 [ng/mL] |
| --- | --- | --- |
| 抗MERS-CoV鼠单克隆抗体6E4 (antibody, V domains shown) VH: EVDLSESLGGQVKVTGSLKLDEAASGSMHGGDVKEGASLWLWVRVTPEIELEWRDAQGVAFISAGESSTYRFTTSRDNARSDRYLQMSELRKLDTAFIYCGRYRVTLSTLQEYSWGQGDWVTTDA VL: DIQETQTRSVLSAALGSRVTISCSMDIANYVNEYQWYQSPKPDFDVKLSIYEVLIYRSVRLQSGVPSRFSKKGSLDDYSLTISCFEPEDVEIYCNDCQILGSELPEFGDFTKIEILR | 256000 | 2.31 |
| 抗MERS-CoV鼠单克隆抗体7G5 (antibody, V domains shown) VH: EVQGQVSGLKLVVEGASVLKSCTSTGFLSGMGLVMPGGSNHSWVQEVPEIVLEWSGDWSANYSQDGLITSKATASADTTDSTAYLQLSEFDSEDTAVSFSCASNWLMLYMASLNWGQGEDDTVQS VL: DISLTRSPSTLSATPQESVSLSCKQLISSYLMWTQWYQSKSHESLELTEKVELIYSNSHLHTGIPFSFSGDDSGTDFFLKVNVNSTEDFGEYFCSCQDQNTSERGDFGQATKLLEK | 256000 | 0.561 |
